Source: the nanobody polyreactivity screen of Harvey et al. (2022)

Assay: yeast display, Sf9 membrane polyspecificity reagent, FACS + sequencing; frameworks hold sequencing errors
Procedure, shortened: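 Nanobodies came from a synthetic yeast display library in Saccharomyces cerevisiae BJ5465, induced with galactose for 36–48 hours and stained for 1 hour at 4 °C with 10% biotinylated, detergent-solubilized Sf9 membrane reagent. Cells were enriched on streptavidin microbeads and then FACS-sorted, with low and high (top ~1%) gates set on anti-HA fluorescence for expression and streptavidin fluorescence for reagent binding. Each polyreactivity label reflects the gate a clone came from. Genes were amplified by colony PCR, sequenced by MiSeq 2 × 250 and filtered by CDR length.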

Sequence	polyreactivity (PSR sort gate)
QVQLVESAGGLVQAGGILRLSCHASGITFTSYVMGWYRQSPGKERELVAAIRWSGGRTYYADSVKGRFTISRDNAKNTVYLQMNSLKPEDTAVYYCNRVTRSHVDYWGQGTQVTVSS	high polyreactivity
QVQLVESAGGLVQAGGSLRLICAASGSTFTYYPMGWYRQAPGKERELVAAISGSGGRTYYADSVKGLFTISRDNAKNTVYLQMNSLKPEDTAVYYCNARATSLVPGRPKQYTYYYWGQGTQVTVSS	high polyreactivity
QVQLVESAGGLVQAGGSLRLSCAASGFIFARYAMGWYRQAPGKERELVAAISSSGGITYYADSVKGRFTISRDNAKNTVYFQMNSLKPEDTAVYYCNAESYYFYWPVYSYDYWGQGTQVTVSS	low polyreactivity
QVQLVESAGGLVQAGGSLRLSCAASGFSFYYNTMGWYRQAPGTEWELVASITWSGDTTYYADSVKGRFTISRDNAKNTVYLQMNSLKPEDTAVYYCAAVPYYPYRRYDYWGQGTQVTVAS	low polyreactivity
QVQLVESAGGLVQAGGSLRLSCAASGFTFDYYAMGWYRQAPGKERELVASITFIGGNTNYADSVKGRFTISRDNAKTTVYLQMNSLKPEDTAVYYCAADFPWDYRYWFEYWGQGTQVTVSS	low polyreactivity
QVQLVESAGGLVQAGGSLRLSCAASGFTFYRNAIGWYRQEPGTERELVAGITRSGGSTYYADSVKGRLTISRDNAKNTVYLQMNSLKPEDTAVYYCNKAFGGDKYSGTYDYWGQGTQVTVSS	high polyreactivity
QVQLVESAGGLVQAGGSLRLSCAASGFTFYTYGMGWYRQAPGKERALVAAITSGVSTNYADSVKGRFTISRDNAKNTVYLQMNSLKPEDTAVYYCNKVGRPAYRWYDYWGQDTQVTVSS	low polyreactivity
QVQLVESAGGLVQAGGSLRLSCAASGIIFGQNAMGWYRQAPGKDRELVAAITISGGSTYYADSVKGRFTISRDNAKNTVYLQMNSLKPEVTAVYYCAARRVTWKDIAGGYRYGYWGQGTQVTVSS	low polyreactivity
QVQLVESAGGLVQAGGSLRLSCAASGIIFTYYAMGWYRQAPGKERELVAAISSSSGSTYYADSVKGRFTISRDNAKNTVYLQMNSLKPEDTAVYYCAAAFSQYSTSYYYWGQGTQVTVSS	high polyreactivity
QVQLVESAGGLVQAGGSLRLSCAASGITFEVYAMGWYRQAPGKERELVAAITGSGSRTYYADSVKGRFTISRDNAKNTVYLQMNSLKPEDTAVYYCAVKGFSTRSYREFDYWGQGSQVTVSS	low polyreactivity
QVQLVESAGGLVQAGGSLRLSCAASGITFRYYAMGWYRQAPGKERELVATITRGGSTYYADSVKGRFTISRDNAKNTVYLQMNSLKPEDTAVYYCAARSYVPSYDYWGQGTQVTVSS	high polyreactivity
QVQLVESAGGLVQAGGSLRLSCAASGLTFYVNAMGWYRQAPGKERELVAAITWSGGSTHYADSVKGRFTISRDNAKNTVYLQMNSLKPEDTAVYYCARATYQHSYVAYDYWGQGTQVTVSS	low polyreactivity
QVQLVESAGGLVQAGGSLRLSCAASGNTFRYYAIGWYRQAPGKERELVAVITTRGGSTNYADSVKGRFTISRDNAKNTVYLQMNRLKPEVTAGYYCNTLRHYGPGYDSGGQGTQVTVSS	low polyreactivity
QVQLVESAGGLVQAGGSLRLSCAASGRIFDRYTMGCYRQAPGKERELVAAITFGGGSTYYADSVKGRFTISRDNAKNTVYLQMNSLKPEDTAVYYCAKQRHGKLGHILGYNYWGQGTQVTVSS	low polyreactivity
QVQLVESAGGLVQAGGSLRLSCAASGRIFGRYAMGWYRQAPGKERELVAAITSGTSTYYADSVKGRFTISRDNAKNTVYLQMNSLKPEDTAVYYCNADYPYYPYRENYWGQGTQVTVSS	low polyreactivity
QVQLVESAGGLVQAGGSLRLSCAASGRIFPYYAMGWYRQAPGKERELVAAITTDGGGTYYADSVKGRFTISRDNSKNTVYLQMNSMKPEDTAVYYCAVPSYQWYDPENYWGQGTQVTVSS	low polyreactivity
QVQLVESAGGLVQAGGSLRLSCAASGRISAYAMGWYRQAPGKERELVAAISSRGGRTYYADSVKGRFTISRDNAKNTVYLQMNSLKPDDTAVYYCNALRTWEFDHWGQGTQVTVSS	high polyreactivity
QVQLVESAGGLVQAGGSLRLSCAASGRNFYRNAMGWYRQAPGKERELVAAISYSGGSTYYADSVKGRFTISRDNAKNTVYLQMNSLKPEDTAVYYFAAAGDRWGNYWGQGTLVTVSS	high polyreactivity
QVQLVESAGGLVQAGGSLRLSCAASGRTFPGNAMGWYRQAPGKERELVATISSGGTTNYADSVKGRFTISRDNAKTTVYLQMNSLKPEDTAVYYCATDTYHHKADYEYWGQGTQVTVSS	low polyreactivity
QVQLVESAGGLVQAGGSLRLSCAASGSICTKYAMGWYRQAPGKERELVAAISASGGSTYYADSVKGRFTISRDNAKNTVYLQMNSLKPEDTAVYYCAARYWVREDYWGQGTQVTVSS	high polyreactivity
QVQLVESAGGLVQAGGSLRLSCAASGSIFILNAMGWYRQAPGKERELVAAISWSGGRTNYADSVKGRFTISRDNAKNTVYLHMNRLKPEDTAVYSCAARVTPYRGFYYWGQGTQVTVSS	high polyreactivity
